{"source": "patent US12552837B2", "about": "“Bicyclic peptide ligands with detectable moieties and uses thereof” (BicycleRD Limited, priority 2017, dated 2026)", "system": "xenograft tumor", "assay": "μPET imaging with 68Ga-labelled Bicycle peptides in xenograft mice", "format": "in vivo", "details": "150 pmoles", "protocol": "General method for μPET imaging: the mice were anaesthetized (2% sevoflurane, Abbott), placed into the small animal PET scanner (Inveon PET, Siemens) and injected with 68Ga-labeled Bicycle peptides. A 20 min transmission scan, a 50 min dynamic scan and a static scan from 100 to 120 min p.i. were performed. Images were reconstructed iteratively using the space alternating generalized expectation maximization method (SAGE, 16 subsets, 4 iterations) applying median root prior correction and were converted to standardized uptake value (SUV) images. Quantitation was done using a ROI (region of interest) technique and expressed as SUVmean.\nGeneral method for radiolabeling with Ga-68: ^68Ga (half-life 68 min; β^+ 89%; Eβ+max. 1.9 MeV) was obtained from a in house ^68Ge/^68Ga generator based on pyrogallol resin support. 1 GBq ^68Ga was eluted using 5.5 M HCl. The activity was trapped on a small anion-exchanger cartridge (AG1X8, Biorad, Richmond, CA, USA) as [^68Ga]GaCl4^−. The radiogallium was eluted from the cartridge in a final volume of 300 μL ultrapure water (Merck, Darmstadt, Germany) as [^68Ga]GaCl3.\n1 nmol Bicycle peptide in 1 μL DMSO was added to a mixture of 50 μL 0.05 M HEPES, 0.1% Tween-20, and 80 μL [^68Ga]Ga^3+ eluate (˜200 MBq). The pH of the labelling solution was adjusted to 4.2 using 30% NaOH. The reaction mixture was incubated at 98° C. for 10 minutes. The radiochemical yield (RCY) was determined using reversed-phase high performance liquid chromatography (RP-HPLC; Chromolith RP-18e, 100×4.6 mm; Merck, Darmstadt, Germany). The analytical HPLC run was performed using a linear A-B gradient (0% B to 100% B in 6 min) at a flow rate of 4 mL/min. Solvent A consisted of 0.1% aqueous TFA and solvent B was 0.1% TFA in CH3CN.\nFor μPET imaging, the labelling reaction mixture was diluted in injection buffer (0.25 M Na-Acetate 0.05% Tween-20 pH 7) by a factor of 6 to obtain 150 pmoles in 100 μL injection buffer. The anaesthetized mouse (2% sevoflurane, Abbott) was injected with 100 μL of ^68Ga-labelled I-23 (˜25 MBq) and placed in a small animal PET scanner (Inveon PET, Siemens). The imaging was performed 60 min post-injection and included a 15 min transmission scan before injection and a 60 min emission scan post-injection. Scans from μPET imaging were reconstructed iteratively using the space alternating generalized expectation maximization method (SAGE, 16 subsets, 4 iterations) applying median root prior correction and were converted to standardized uptake value (SUV) images. Quantitation was accomplished using an ROI (region of interest) technique and expressed as SUVmean.\nThe radiolabelling with Ga-68 was done as described before. […] Quantitation was accomplished using an ROI (region of interest) technique and expressed as SUVmean. […]", "note": "*1 amine or outer side, *2 acyl side, *3 side chain or, on linkers, in order; H or OH if unused. Where a SMILES comes first, the peptide text is derived from it. Bridges are numbered along the chain shown (N, C = ends). [ ]: non-standard residue; d: D form. The star is where a group is joined. DOTA = O=C(O)CN1CCN(CC(=O)O)CCN(CC(=O)*)CCN(CC(=O)O)CC1; 1Nal = N[C@@H](Cc1cccc2ccccc12)C(=O)O; TBMB = c1c(C[*:1])cc(C[*:3])cc1C[*:2]; Tle = CC(C)(C)[C@H](N)C(=O)O", "data": [{"smiles": "C[C@H](NC(=O)CN1CCN(CC(=O)O)CCN(CC(=O)O)CCN(CC(=O)O)CC1)C(=O)N[C@H]1CSCc2cc3cc(c2)CSC[C@H](NC(=O)[C@@H](C)NC(=O)[C@H](Cc2cccc4ccccc24)NC(=O)[C@H](CCC(=O)O)NC(=O)[C@H](CC(N)=O)NC(=O)[C@@H](C)NC1=O)C(=O)N[C@@H](CCC(=O)O)C(=O)N[C@@H](CC(=O)O)C(=O)N[C@@H](Cc1ccccc1)C(=O)N[C@@H](Cc1ccc(O)cc1)C(=O)N[C@@H](CC(=O)O)C(=O)N[C@@H](C(C)(C)C)C(=O)N[C@H](C(N)=O)CSC3", "note": "[I-23] ({DOTA}-AC[dA]NE[1Nal][dA]CEDFYD[Tle]C-NH2; linker 2-8-15 via TBMB)", "values": [{"measurement": "time post injection from which high imaging contrasts are seen", "value": 20, "unit": "min"}, {"measurement": "tumor uptake in μPET images", "value": "MMP-14-selective tumor uptake"}]}]}
